This is an account of results in US20230235073A1.

The target of experiment [1] is human CD36 on cells overexpressing human CD36 (human) (UniProt P16671). The experiment can be described thus: FACS on cells overexpressing human CD36, % of Binding.
Experiment [2] addresses human CD36 recombinant protein (Sino Biological, reference 10752-H08H) (human) (UniProt P16671). In words: ELISA, plate coated with human CD36, OD630, panel 'Coating: human CD36'.
Experiment [3] has as its target mouse CD36 recombinant protein (Sino Biological, reference 50422-M08H) (mouse) (UniProt Q08857). In words: ELISA, plate coated with mouse CD36, OD630, panel 'Coating: mouse CD36'.
Experiment [4] addresses human CD36 recombinant protein (Sino Biological, reference 10752-H08H) (human) (UniProt P16671). In words: SPR Biacore T200, antibody captured on anti-mouse IgA, CD36 analyte, 2-state model.
For experiment [5] the target is unchanged. In words: SPR Biacore T200, antibody captured on anti-mouse IgA, CD36 analyte, bivalent model.
Experiment [6] has the same target. The experiment can be described thus: SPR Biacore T200, antibody captured on anti-mouse IgA, CD36 analyte 3.3-333 nM, 1-to-1 model.

Sequence of human CD36 recombinant protein (Sino Biological, reference 10752-H08H) (human) (P16671 30-439 limits assumed): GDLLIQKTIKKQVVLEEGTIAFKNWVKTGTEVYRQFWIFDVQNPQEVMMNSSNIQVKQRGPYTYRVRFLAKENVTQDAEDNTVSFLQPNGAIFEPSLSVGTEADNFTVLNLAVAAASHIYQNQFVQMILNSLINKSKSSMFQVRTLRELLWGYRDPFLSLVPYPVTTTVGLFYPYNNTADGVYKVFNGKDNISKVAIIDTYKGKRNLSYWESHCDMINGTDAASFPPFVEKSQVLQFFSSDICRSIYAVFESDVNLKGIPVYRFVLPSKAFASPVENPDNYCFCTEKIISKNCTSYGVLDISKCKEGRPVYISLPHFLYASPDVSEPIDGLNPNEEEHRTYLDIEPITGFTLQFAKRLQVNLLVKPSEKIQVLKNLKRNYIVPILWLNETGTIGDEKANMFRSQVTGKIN
Sequence of human CD36 on cells overexpressing human CD36 (human) (P16671 2-472 limits assumed): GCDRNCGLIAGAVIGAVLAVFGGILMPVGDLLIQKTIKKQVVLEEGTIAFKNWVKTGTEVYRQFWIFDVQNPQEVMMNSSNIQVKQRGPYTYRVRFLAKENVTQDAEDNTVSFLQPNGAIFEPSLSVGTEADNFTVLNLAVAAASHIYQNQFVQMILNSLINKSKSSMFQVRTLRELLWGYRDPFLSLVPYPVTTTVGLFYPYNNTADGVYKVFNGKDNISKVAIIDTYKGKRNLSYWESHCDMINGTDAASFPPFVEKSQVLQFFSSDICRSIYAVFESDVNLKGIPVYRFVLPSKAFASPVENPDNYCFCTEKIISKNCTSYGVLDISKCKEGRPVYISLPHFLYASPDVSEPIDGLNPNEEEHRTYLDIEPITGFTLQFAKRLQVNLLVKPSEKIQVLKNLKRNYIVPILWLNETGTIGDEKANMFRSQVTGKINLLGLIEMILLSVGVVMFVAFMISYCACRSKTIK
Sequence of mouse CD36 recombinant protein (Sino Biological, reference 50422-M08H) (mouse) (Q08857 30-439 limits assumed, stated change not applied): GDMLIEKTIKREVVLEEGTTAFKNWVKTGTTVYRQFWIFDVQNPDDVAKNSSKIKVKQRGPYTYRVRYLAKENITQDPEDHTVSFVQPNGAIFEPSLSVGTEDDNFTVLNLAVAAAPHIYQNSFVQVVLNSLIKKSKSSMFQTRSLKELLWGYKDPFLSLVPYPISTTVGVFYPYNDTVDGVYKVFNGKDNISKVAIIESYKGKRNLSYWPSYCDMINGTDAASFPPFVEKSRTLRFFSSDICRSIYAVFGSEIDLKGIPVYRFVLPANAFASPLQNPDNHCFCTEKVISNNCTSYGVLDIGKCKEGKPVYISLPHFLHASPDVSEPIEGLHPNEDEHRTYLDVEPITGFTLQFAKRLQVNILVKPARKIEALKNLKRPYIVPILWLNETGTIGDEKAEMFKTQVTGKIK

The substance “commercial neutralizing monoclonal anti-CD36 antibody JC63.1 (CAYMAN, CAY-10009893-500)” had an EC50 (read off the curve) in experiment [1] of 0.03 nM. In experiment [2], the EC50 (read off the curve) fell in the range of 1 to 2 nM. Further, the EC50 (read off the curve) in experiment [3] stood at 1 nM. In addition, in experiment [4], the Kd was determined as 7.61 nM, the ka1 is 86900 M⁻¹ s⁻¹, the ka2 is 0.000572 s⁻¹ and the kd1 was 0.0018 s⁻¹. The kd2 in experiment [4] is 0.000332 s⁻¹. Moreover, in experiment [5], the KD1 was 76.5 nM, the KD2 was 956 nM, the ka1 is 27200 M⁻¹ s⁻¹ and the ka1 (second column so headed) came to 413 M⁻¹ s⁻¹. In experiment [5], the ka2 is 5.5e-05 1/RUs, the kd1 was determined as 0.00206 s⁻¹ and the kd2 turned out to be 0.000399 s⁻¹. In experiment [6], the Kd worked out at 4.71 nM, the koff came to 0.00196 s⁻¹ and the kon is 418000 M⁻¹ s⁻¹.
